Results from paper PMC3708883.

Columns and labels:
[1] = biological target: β1 integrin (human (endogenous in peripheral blood monocytes)) (UniProt P05556)
[2] = biological target: β3 integrin (human (endogenous in peripheral blood monocytes)) (UniProt P05106)
β3 integrin (human (endogenous in peripheral blood monocytes)), sequence (P05106 27-788): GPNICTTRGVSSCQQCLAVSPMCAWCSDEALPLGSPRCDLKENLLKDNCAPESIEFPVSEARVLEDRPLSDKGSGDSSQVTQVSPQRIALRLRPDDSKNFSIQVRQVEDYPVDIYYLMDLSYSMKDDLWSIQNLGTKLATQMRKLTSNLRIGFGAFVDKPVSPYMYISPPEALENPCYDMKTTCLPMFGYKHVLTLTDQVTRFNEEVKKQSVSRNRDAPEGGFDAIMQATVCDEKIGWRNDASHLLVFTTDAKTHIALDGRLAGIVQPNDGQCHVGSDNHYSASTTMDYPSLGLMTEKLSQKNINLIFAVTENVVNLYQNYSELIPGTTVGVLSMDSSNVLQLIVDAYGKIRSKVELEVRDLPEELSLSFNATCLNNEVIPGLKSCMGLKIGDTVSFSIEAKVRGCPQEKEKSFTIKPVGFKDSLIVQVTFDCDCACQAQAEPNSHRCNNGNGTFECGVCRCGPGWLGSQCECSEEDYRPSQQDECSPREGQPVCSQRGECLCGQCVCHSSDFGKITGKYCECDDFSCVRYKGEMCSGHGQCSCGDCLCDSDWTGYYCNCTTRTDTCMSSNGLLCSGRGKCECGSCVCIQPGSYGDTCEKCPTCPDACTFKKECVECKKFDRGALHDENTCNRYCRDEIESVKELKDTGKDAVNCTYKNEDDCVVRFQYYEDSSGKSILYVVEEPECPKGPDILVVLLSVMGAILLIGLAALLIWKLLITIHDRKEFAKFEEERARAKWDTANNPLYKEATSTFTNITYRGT

β1 integrin (human (endogenous in peripheral blood monocytes)), sequence (P05556 21-798): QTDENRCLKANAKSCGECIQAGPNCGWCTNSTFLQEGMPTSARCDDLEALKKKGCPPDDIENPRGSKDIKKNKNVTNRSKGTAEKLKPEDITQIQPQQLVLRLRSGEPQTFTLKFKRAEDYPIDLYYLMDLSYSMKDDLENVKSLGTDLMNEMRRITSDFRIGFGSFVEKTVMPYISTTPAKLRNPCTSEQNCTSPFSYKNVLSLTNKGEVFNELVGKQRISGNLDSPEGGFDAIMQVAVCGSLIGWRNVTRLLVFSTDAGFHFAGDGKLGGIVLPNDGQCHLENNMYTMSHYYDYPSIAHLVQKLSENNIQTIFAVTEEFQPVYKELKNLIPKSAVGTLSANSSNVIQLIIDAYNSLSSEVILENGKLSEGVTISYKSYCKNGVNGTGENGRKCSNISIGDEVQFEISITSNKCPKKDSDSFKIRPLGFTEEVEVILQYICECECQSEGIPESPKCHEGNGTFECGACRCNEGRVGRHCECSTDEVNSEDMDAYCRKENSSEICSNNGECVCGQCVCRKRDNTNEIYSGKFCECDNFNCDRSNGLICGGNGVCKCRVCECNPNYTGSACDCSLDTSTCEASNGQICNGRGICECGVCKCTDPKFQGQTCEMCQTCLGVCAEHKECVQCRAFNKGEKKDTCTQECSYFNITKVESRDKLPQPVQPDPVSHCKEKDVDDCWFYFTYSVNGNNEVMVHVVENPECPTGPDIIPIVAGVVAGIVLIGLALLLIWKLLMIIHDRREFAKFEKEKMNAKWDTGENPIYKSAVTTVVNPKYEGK

## HCMV gH/gL/UL128-131 complex of BADrUL131 (from UniProt P12824 24-743; P16832 31-278; P16837 1-171; P16772 1-214)
[1]
  inhibition of BADrUL131 entry into monocytes (internalized vDNA) after pretreatment with 5 µg/ml function blocking anti-β1 integrin antibody: 75%
[2]
  inhibition of BADrUL131 entry into monocytes (internalized vDNA) after pretreatment with 5 µg/ml function blocking anti-β3 integrin antibody: 40%
